Source: patent US20240207216A1, “COMPOSITIONS AND METHOD FOR TREATING GUT PERMEABILITY CAUSED BY HYDROGEN SULFIDE PRODUCING BACTERIA” (UNM RAINFOREST INNOVATIONS, priority 2022, published 2024)

Experiments:
[1] = test system: Desulfovibrio desulfuricans; settings: cited from earlier work
occludin = test: Occludin localization by immunofluorescence in DSV-infected cells; type: cell-based, Human; settings: IAP pre-treatment, DSV infection (DSV+IAP)
Snail [2] = test: DSV-induced Snail nuclear localization by immunofluorescence; type: cell-based, Human; settings: IAP pre-treatment, DSV infection; vs DSV+Veh
Protocol: FIG. 5. Intestinal Alkaline Phosphatase inhibits DSV-induced permeability by inhibiting Snail. Polarized Caco-2 cells were pre-treated with IAP (500 U/ml) at the apical and the basolateral surface for 24 hours prior to challenge with D. vulgaris. (A) FITC-dextran was added to the cells apically after 24 hours infection with D. vulgaris. Fluorescence was measured by taking out 100 μl medium from the basolateral surface after one-hour incubation. Graph represents Mean±SEM of % FITC-flux compared to uninfected control cells from at least three independent experiments. **p<0.01. (B) Snail protein expression was analyzed by Western blotting in cells pre-treated with or without IAP followed by infection with D. vulgaris. The solution in which IAP was supplied was used as a Vehicle control. Actin was used as a loading control. (C) Quantification of Western blot for detection of Snail. Graph represents Mean±SEM of ratio of Snail/Actin and values were normalized to control from at least three independent experiments. *p<0.05. (D) Cells were pre-treated with or without IAP followed by infection with D. vulgaris. Cells were fixed with 4% paraformaldehyde and probed by immunofluorescence for Snail staining. Graph represents quantification of % cells showing nuclear staining of Snail in control, DSV+Vehicle (Veh), or DSV+IAP treated groups. […]

Snail [3] = test: DSV-induced Snail protein expression by Western blot; type: cell-based, Human; settings: IAP 500 U/ml pre-treatment 24 h, DSV 24 h; vs DSV+Veh
Protocol: FIG. 16. Rapamycin reduces DSV-induced Snail protein expression. Polarized Caco-2 cells were treated with 100 nM rapamycin for two hours, followed by DSV infection (MOI 20) for 24 hours. Cells were harvested and lysed. (A) Protein lysate was analyzed for Snail expression by Western blotting. (B) Quantitation of Snail expression from Western blot in (A). DSV: 7.14±0.73; DSV+Rapamycin: 3.10±0.74, **p<0.01.
Human colonic epithelial cells Caco-2 were purchased from the American Type Culture Collection (ATCC, Manassas, VA). Cells were grown in DMEM+20% FBS+penicillin and streptomycin (Thermo Fisher Scientific, Inc., Waltham, MA). Cells were grown at 37° C. in a humidified incubator with 5% CO2. To allow polarization and differentiation, cells were seeded at a density of 5×10^3 cells/well in 12-well 0.4 μm trans-well inserts for three weeks. Twenty-four hours before infection, growth medium was replaced with colorless medium (DMEM+20^0/o FBS) without antibiotics. […]
Cells were lysed in lysis buffer (Thermo Fisher Scientific, Inc., Waltham, MA; catalog #87787) containing protease and phosphatase inhibitors (Thermo Fisher Scientific, Inc., Waltham, MA; catalog #1861281) for 20 minutes at 4° C. with shaking. […] Protein concentration in the supernatants was determined with Bradford reagent (Bio-Rad Laboratories, Inc., Hercules, CA). […]

polarized Caco-2 cells = test: DSV-induced paracellular permeability, 4 kDa FITC-dextran flux; type: cell-based, Human; settings: IAP 500 U/ml apical and basolateral, 24 h before DSV MOI 20 for 24 h; vs DSV+Veh
Protocol: FIG. 7. Rapamycin reduces DSV-induced paracellular permeability. Human Caco-2 cells were grown in 0.4 μm trans-well inserts for three weeks to generate polarized intestinal epithelial monolayers. Cells were treated with 100 nM rapamycin, an inducer of autophagy, for two hours followed by DSV infection (MOI 20) for 24 hours. Barrier integrity was assessed by measuring paracellular flux of 4 kDa FITC-Dextran.
Human colonic epithelial cells Caco-2 were purchased from the American Type Culture Collection (ATCC, Manassas, VA). Cells were grown in DMEM+20% FBS+penicillin and streptomycin (Thermo Fisher Scientific, Inc., Waltham, MA). Cells were grown at 37° C. in a humidified incubator with 5% CO2. […]
Tight junction barrier integrity in 21-day old polarized Caco-2 cells grown in 12-well trans-well plates was assessed via transepithelial electric resistance (TEER) using EVOM meter (World Precision Instruments, LLC, Sarasota, FL). […] Paracellular permeability was quantified by measuring FITC-dextran flux (Fluorescein isothiocyanate-dextran 4000 (FD-4), Sigma-Aldrich, St. Louis, MO). […] After one hour of incubation, 100 μl of the basolateral medium was collected and analyzed for the presence of FITC fluorescence. Fluorescence was measured at the wavelengths of excitation at 485 nm and emission at 520 nm using a plate reader (Synergy HTX Multi-Mode Reader, BioTek, Winooski, VT). […]

Row | Molecule | growth of Desulfovibrio desulfuricans [1] | occludin staining (occludin) | percentage of cells with nuclear localization of Snail (Snail [2]) | Snail protein expression (Snail [3]) | D. vulgaris-induced FITC-dextran flux (polarized Caco-2 cells)
1 | [Bi] [bismuth] | inhibits the growth | – | – | – | –
2 | intestinal alkaline phosphatase (protein, UniProt P09923 20-503, looked up, host defense protein produced by enterocytes in the small intestine) Intestinal-type alkaline …: VIPAEEENPAFWNRQAAEALDAAKKLQPIQKVAKNLILFLGDGLGVPTVTATRILKGQKNGKLGPETPLAMDRFPYLALSKTYNVDRQVPDSAATATAYLCGVKANFQTIGLSAAARFNQCNTTRGNEVISVMNRAKQAGKSVGVVTTTRVQHASPAGTYAHTVNRNWYSDADMPASARQEGCQDIATQLISNMDIDVILGGGRKYMFPMGTPDPEYPADASQNGIRLDGKNLVQEWLAKHQGAWYVWNRTELMQASLDQSVTHLMGLFEPGDTKYEIHRDPTLDPSLMEMTEAALRLLSRNPRGFYLFVEGGRIDHGHHEGVAYQALTEAVMFDDAIERAGQLTSEEDTLTLVTADHSHVFSFGGYTLRGSSIFGLAPSKAQDSKAYTSILYGNGPGYVFNSGVRPDVNESESGSPDYQQQAAVPLSSETHGGEDVAVFARGPQAHLVHGVQEQSFVAHVMAFAACLEPYTACDLAPPACTTD | – | comparable to control | significant reduction | significantly reduced | inhibited
